Assay results reported in PMC9107065.

Target: 30-601-30 nucleosome with Cy3-labeled H2B(K120C) (Xenopus laevis)
Test: other fluorescence titration

- other: 40%
Substance: Saccharomyces cerevisiae Chd1[Y137A] (from UniProt P32657 118-1274) (enzyme)
